Assay results published in PMC3695229, “Identification of a Novel TGF-β-Binding Site in the Zona Pellucida C-terminal (ZP-C) Domain of TGF-β-Receptor-3 (TGFR-3)” (PLoS ONE, 2013).
Each block holds one binder with its values, some of them ahead of it.

B1: murine TGFR-3-ZP (recombinant ZP domain of TGF-β receptor type 3, residues 438-782, including the EHP) (domain or fragment, mouse, UniProt O88393 438-782, looked up)
chain: REPEEVQGGVNIALSVKCDNEKMVVAVDKDSFQTNGYSGMELTLLDPSCKAKMNGTHFVLESPLNGCGTRHRRSAPDGVVYYNSIVVQAPSPGDSSGWPDGYEDLESGDNGFPGDTDEGETAPLSRAGVVVFNCSLRQLRSPSGFQDQLDGNATFNMELYNTDLFLVPSPGVFSVAENEHVYVEVSVTKADQDLGFAIQTCFISPYSNPDRMSDYTIIENICPKDDSVKFYSSKRVHFPIPHAEVDKKRFSFVFKSVFNTSLLFLHCELTLCSRNKGSQKLPKCVTPDDACTSLDATMIWTMMQNKKTFTKPLAVVLQVDYKENVPNMKESSPVPPPPQIFHGLD
modifications: secretory glycoprotein; four potential N-glycosylation sites (positions 491, 570, 589 and 696)
notes: TGF-β receptor type 3 (TGFR-3, betaglycan), mouse, residues 438-782 (ZP core domain plus C-terminal extension 729-782 with the EHP); numbering adheres to UniProtKB/TrEMBL O88393 and includes the N-terminal signal peptide; From the forward primer the thrombin site LVPRGS precedes residue 438, so Gly-Ser probably remain after cleavage (surmised); Dimer by DLS and SEC only (apparent masses); also …
B3: TGFR-3-ZP(234) (domain or fragment, mouse, UniProt O88393 438-782, looked up)
chain: REPEEVQGGVNIALSVKCDNEKMVVAVDKDSFQTNGYSGMELTLLDPSCKAKMNGTHFVLESPLNGCGTRHRRSAPDGVVYYNSIVVQAPSPGDSSGWPDGYEDLESGDNGFPGDTDEGETAPLSRAGVVVFQCSLRQLRSPSGFQDQLDGQATFNMELYNTDLFLVPSPGVFSVAENEHVYVEVSVTKADQDLGFAIQTCFISPYSNPDRMSDYTIIENICPKDDSVKFYSSKRVHFPIPHAEVDKKRFSFVFKSVFQTSLLFLHCELTLCSRNKGSQKLPKCVTPDDACTSLDATMIWTMMQNKKTFTKPLAVVLQVDYKENVPNMKESSPVPPPPQIFHGLD
modifications: one remaining potential N-glycosylation site (N491)
notes: TGF-β receptor type 3 (TGFR-3, betaglycan), mouse, residues 438-782 with three of four potential N-glycosylation sites mutated to glutamine; numbering adheres to O88393 including the signal peptide; Same construct and vector as m1; also called glycosylation-attenuated TGFR-3-ZP variant; source: HEK293 EBNA cells, secreted, purified (Ni-Sepharose, thrombin cleavage, SEC); not shown: His6, …

Legend:
[1] = molecular target: the molecule itself; experiment: dynamic light scattering; TGFR-3-ZP alone, 2 mg/ml, 20 mM HEPES pH 7.4, 20°C; apparent molecular weight from hydrodynamic radius
[2] = molecular target: B3; experiment: SPR; Biacore 2000; biotinylated ligands immobilised on streptavidin-coated CM5 chip, TGFR-3-ZP variants as analytes; 25°C, HBS500 (10 mM HEPES pH 7.4, 500 mM NaCl, 3.4 mM EDTA, 0.005% P20); apparent affinities from equilibrium binding; details: both partners purified
[3] = molecular target: B1; experiment: as above; details: both partners purified
[4] = molecular target: the molecule itself; experiment: SEC; analytical SEC of the ligand-free protein on Superdex 200 10/300, 4°C, 0.5 ml/min; apparent molecular weight against standards

Binder: B1
stoichiometry N [1]: 2

Kd [2]: 34.6 µM | Kd [3]: 29.1 µM
B2: human BMP-2 (ligand, UniProt P12643 283-396, looked up)
chain: QAKHKQRKRLKSSCKRHPLYVDFSDVGWNDWIVAPPGYHAFYCHGECPFPLADHLNSTNHAIVQTLVNSVNSKIPKACCVPTELSAISMLYLDENEKVVLKNYQDMVVEGCGCR
modifications: biotinylated with Sulfo-NHS-LC-biotin (1 or 2 biotin moieties) for immobilisation
notes: bone morphogenetic protein 2, human; also called bone morphogenetic protein 2

Binder: B3
stoichiometry N [4]: 2
